# Results published in the supplement of paper PMC7877785.
# ± gives the uncertainty stated by the source.
# Experiment: self-splicing fitness, log relative to wild type (ln ratio); higher = more splicing; Tetrahymena group I intron in knt gene, E. coli kanamycin selection, DiMSum; sequences stand for … in CUCUCU…GGAGGGAAAAGUUAUCAGGCAUGCACCUGGUAGCUAGUCUUUAAACCAAUAGAUUGCAUCGGUUUAAAAGGCAAGACCGUCAAAUUGCGGGAAAGGGGUCAACAGCCGUUCAGUACCAAGUCUCAGGGGAAACUUUGAGAUGGCCUUGCAAAGGGUAUGGUAAUAAGCUGACGGACAUGGUCCUAACCACGCAGCCAAGUCCUAAGUCAACAGAUCUUCUGUUGAUAUGGAUGCAGUUCACAGACUAAAUGUCGGUCGGGGAAGAUGUAUUCUUCUCAUAAGAUAUAGUCGGACCUCUCCUUAAUGGGAGCUAGCGGAUGAAGUGAUGCAACACUGGAGCCGCUGGGAACUAAUUUGUAUGCGAAAGUAUAUUGAUUAGUUUUGGAGUACUCGUGGUCG
# Outline: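 DiMSum derived fitness as the error-weighted combination of fold changes across replicates, kanamycin versus no kanamycin, normalised to wild type. E. coli BL21(DE3) held the library, which randomised all eight P1ex-region intron nucleotides within the knt kanamycin-resistance gene on pET-22b(+). Six replicate transformations grew overnight at 37°C or 30°C on LB agar with or without 25 μg/mL kanamycin, also containing 100 μg/mL carbenicillin, 50 μM IPTG and 0.2% rhamnose, and pooled colonies were amplicon-sequenced on an Illumina HiSeq 2500.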
Sequence,self-splicing fitness (ln) (30 °C),self-splicing fitness (ln) (37 °C)
ACGAAGCAAUAUUACGCCGU,-3.86 ± 0.37,-1.57 ± 0.23
CCUAAGCAAUAUUACGUUUA,-3.45 ± 0.18,-3.14 ± 0.2
GCGUAGCAAUAUUACGCAUU,-2.88 ± 0.2,-2.58 ± 0.27
AUAAAGCAAUAUUACGAAUU,-1.23 ± 0.064,-0.731 ± 0.089
AUGAAGCAAUAUUACGAUGU,0.274 ± 0.092,-0.284 ± 0.099
UUAUAGCAAUAUUACGGGGG,-3.15 ± 0.4,–
AAGGAGCAAUAUUACGGCAC,-1.23 ± 0.47,-1.62 ± 0.46
CGUCAGCAAUAUUACGACCC,-0.525 ± 0.18,0.0394 ± 0.17
GAAGAGCAAUAUUACGUCUU,-4.83 ± 0.19,-2.4 ± 0.081
AGCUAGCAAUAUUACGAAGA,-2.45 ± 0.24,-2.86 ± 0.18
CCUAAGCAAUAUUACGCAAC,-3.08 ± 0.26,-3.03 ± 0.4
GUGUAGCAAUAUUACGGCAU,-3.48 ± 0.41,-0.582 ± 0.2
UCACAGCAAUAUUACGAUGA,-1.29 ± 0.1,-0.136 ± 0.11
UCUGAGCAAUAUUACGUAAU,-3.33 ± 0.23,-2.12 ± 0.29
UCCAAGCAAUAUUACGGUGA,-0.389 ± 0.054,0.493 ± 0.077
GUGUAGCAAUAUUACGGAUC,-1.04 ± 0.13,0.406 ± 0.17
AAGCAGCAAUAUUACGUAAC,-2.67 ± 0.11,-1.94 ± 0.14
UCGUAGCAAUAUUACGACGA,-3.15 ± 0.3,-0.365 ± 0.11
CGUCAGCAAUAUUACGAUGA,-0.998 ± 0.11,0.0314 ± 0.11
CUGGAGCAAUAUUACGGACC,-3.79 ± 0.24,-2.04 ± 0.34
CCACAGCAAUAUUACGUAUA,-4.05 ± 0.24,-2.84 ± 0.23
GUCAAGCAAUAUUACGGAUA,-2.47 ± 0.19,-1.27 ± 0.17
GGCAAGCAAUAUUACGUGAA,-0.509 ± 0.091,0.184 ± 0.11
GUCAAGCAAUAUUACGAGUG,-3.56 ± 0.17,-1.69 ± 0.16
CCGUAGCAAUAUUACGGUGA,-3.66 ± 0.26,-2.45 ± 0.25

Sequence,self-splicing fitness (ln) (30 °C),self-splicing fitness (ln) (37 °C)
UGAGAGCAAUAUUACGCGGA,-3.34 ± 0.47,-1.49 ± 0.46
UUUAAGCAAUAUUACGGCUG,-0.528 ± 0.13,-0.292 ± 0.16
GUAUAGCAAUAUUACGACCA,-0.996 ± 0.17,-0.193 ± 0.17
GAAUAGCAAUAUUACGCAUU,-3.04 ± 0.22,-1.43 ± 0.2
CCCGAGCAAUAUUACGAGGU,-3.75 ± 0.15,-3.11 ± 0.17
UAAUAGCAAUAUUACGUCUG,-0.694 ± 0.075,-0.276 ± 0.089
CGCCAGCAAUAUUACGGUAC,-2.83 ± 0.095,-1.52 ± 0.091
CCCGAGCAAUAUUACGAAAC,–,-0.43 ± 0.4
UAAAAGCAAUAUUACGGCUA,0.159 ± 0.073,-0.0882 ± 0.084
GUUCAGCAAUAUUACGAGUU,-1.43 ± 0.088,-0.77 ± 0.086
CUCGAGCAAUAUUACGGUUG,-3.73 ± 0.13,-2.07 ± 0.13
GUCUAGCAAUAUUACGCUGC,–,-2.71 ± 0.34
UAAAAGCAAUAUUACGGGUG,-0.67 ± 0.042,-0.46 ± 0.061
GUUCAGCAAUAUUACGACUC,0.0553 ± 0.47,–
GCUUAGCAAUAUUACGCGUG,-1.74 ± 0.1,-1.64 ± 0.11
UGCCAGCAAUAUUACGAGGG,-2.61 ± 0.18,-1.94 ± 0.19
UCCCAGCAAUAUUACGAGAC,-3.6 ± 0.28,-0.749 ± 0.16
CAAAAGCAAUAUUACGAAGG,-1.87 ± 0.11,-0.758 ± 0.13
AACAAGCAAUAUUACGGUGG,-1.84 ± 0.06,-0.813 ± 0.073
GCUCAGCAAUAUUACGCCUU,0.0207 ± 0.11,0.141 ± 0.14
UGCGAGCAAUAUUACGAUUG,-2.09 ± 0.1,-1.35 ± 0.16
UGAUAGCAAUAUUACGGUUU,-2.91 ± 0.097,-1.38 ± 0.11
UCGUAGCAAUAUUACGACAC,-3.54 ± 0.34,-2.7 ± 0.4
AGAAAGCAAUAUUACGCGUG,-1.72 ± 0.087,-0.548 ± 0.093
